Measurements from patent publication US20140087995A1 (published 2014).
Numbered stars: 1 amine (or outer) side, 2 acyl side, 3 side chain; on linkers, the order of the positions; unused ones are H or OH. Bridge positions count the residues as written; N and C are the ends. Side chains are listed from the residue outwards. Ends that are not written are not given here. * marks the point of attachment. C20 diacid = O=C(O)CCCCCCCCCCCCCCCCCCC(=O)*; γGlu = O=C(O)[C@H](CCC(=O)[*:2])N[*:1]; AEEA = NCCOCCOCC(=O)O

T1: human amylin receptor (human, UniProt P30988 25-474; O60896 24-148, limits assumed)
T1 construct: whole, on cells; Calcitonin receptor plus RAMP-3 gives the amylin 3(a) receptor; membranes of Amylin 3(a)/CRE-luc cells were used; also called hAmylin-R; hAmylinR
T1 sequence (looked up) 1: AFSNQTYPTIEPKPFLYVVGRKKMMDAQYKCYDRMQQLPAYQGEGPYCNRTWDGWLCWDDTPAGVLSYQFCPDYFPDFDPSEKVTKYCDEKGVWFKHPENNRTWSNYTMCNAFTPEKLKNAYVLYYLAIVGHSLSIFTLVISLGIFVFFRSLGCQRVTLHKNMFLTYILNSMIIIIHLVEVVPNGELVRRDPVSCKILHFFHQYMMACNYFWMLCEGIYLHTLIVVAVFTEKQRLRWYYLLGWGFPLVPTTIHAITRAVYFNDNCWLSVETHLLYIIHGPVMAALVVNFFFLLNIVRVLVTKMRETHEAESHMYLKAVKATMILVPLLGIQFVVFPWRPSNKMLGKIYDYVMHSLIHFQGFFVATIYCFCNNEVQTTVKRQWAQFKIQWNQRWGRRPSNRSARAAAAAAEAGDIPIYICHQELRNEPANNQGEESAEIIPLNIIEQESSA
T1 sequence (looked up) 2: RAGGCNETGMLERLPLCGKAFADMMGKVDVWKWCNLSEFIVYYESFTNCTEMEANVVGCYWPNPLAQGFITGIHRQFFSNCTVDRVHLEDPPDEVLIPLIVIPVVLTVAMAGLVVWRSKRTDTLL


Target: T1, human amylin receptor
Experiment: SPA competition binding, displacement of 125I-rat amylin from membranes with human amylin 3(a) receptor (Assay V)
Experimental: The binding assay was performed using scintillation proximity assay (SPA) beads (RPNQ0001) from PerkinElmer and cell membranes from the Amylin 3(a)/CRE-luc cells (as described in Assay (II)) were used. Membranes were prepared in the following way; the cells were rinsed with PBS and incubated with Versene for approximately 5 min before harvesting. The cells were flushed with PBS and the cell-suspension was centrifuged for 5 min at 1000 rpm. Cells were homogenized (ultrathurrax) in a buffer containing 20 mM Na-HEPES and 10 mM EDTA (pH 7.4) and centrifuged at 20.000 rpm for 15 min. The resulting pellet was resuspended, homogenized and centrifuged (20.000 rpm, 15 min) in a buffer containing 20 mM Na-HEPES and 0.1 mM EDTA (pH 7.4, buffer 2). The resulting pellet was resuspended in buffer 2 and protein concentration was measured (BCA protein Assay, Pierce). The homogenate was kept cold during the whole procedure. The membranes were kept at −80° C. until use. The assay was performed in a 384 well Optiplate (PerkinElmer) in a total volume of 40 ul. Membranes were mixed with SPA beads. Final concentration of membranes 35 ng/μL final and SPA beads was 0.05 mg/well. Test-compounds were dissolved in DMSO and further diluted in assay buffer (50 mM Hepes, pH 7.4, 1 mM CaCl2, 5 mM MgCl₂, 0.1% OA and 0.02% Tween20). […] The final mixture was incubated with shaking at 400 rpm for 120 min at 25° C. prior to centrifugation (1500 rpm, 10 min). Samples were analyzed on TopCounter™ (Packard). The IC₅₀ was calculated using (one site binding competition analysis) GraphPad Prism5 as a measure of receptor affinity.

| IC50 [nM] | Binder |
| --- | --- |
| 0.143 | KCNTATCATQRLAEFLRHSSPNFGAIPSSTNVGSNTY (C20 diacid-gGlu on the alpha amino group of the N-terminal residue; disulfide Cys2-Cys7 and C-terminal amide as in human amylin, also called 14E, 17R, 21P, 27P) [N^α1-[(4S)-4-carboxy-4-(19-carboxynonadecanoylamino)butanoyl]-[Glu14,Arg17,Pro21,Pro27]-h-amylin] |
| 0.119 | K([AEEA-C20 diacid])CNTATCATQRLANFLRHSSPNFGAIPSSTNVGHNTY-NH2 (disulfide 2-7; N-terminus assumed; SMILES CC[C@H](C)[C@H](NC(=O)[C@H](C)NC(=O)CNC(=O)[C@H](Cc1ccccc1)NC(=O)[C@H](CC(N)=O)NC(=O)[C@@H]1CCCN1C(=O)[C@H](CO)NC(=O)[C@H](CO)NC(=O)[C@H](Cc1c[nH]cn1)NC(=O)[C@H](CCCNC(=N)N)NC(=O)[C@H](CC(C)C)NC(=O)[C@H](Cc1ccccc1)NC(=O)[C@H](CC(N)=O)NC(=O)[C@H](C)NC(=O)[C@H](CC(C)C)NC(=O)[C@H](CCCNC(=N)N)NC(=O)[C@H](CCC(N)=O)NC(=O)[C@@H](NC(=O)[C@H](C)NC(=O)[C@@H]1CSSC[C@H](NC(=O)[C@@H](N)CCCCNC(=O)COCCOCCNC(=O)CCCCCCCCCCCCCCCCCCC(=O)O)C(=O)N[C@@H](CC(N)=O)C(=O)N[C@@H]([C@@H](C)O)C(=O)N[C@@H](C)C(=O)N[C@@H]([C@@H](C)O)C(=O)N1)[C@@H](C)O)C(=O)N1CCC[C@H]1C(=O)N[C@@H](CO)C(=O)N[C@@H](CO)C(=O)N[C@H](C(=O)N[C@@H](CC(N)=O)C(=O)N[C@H](C(=O)NCC(=O)N[C@@H](Cc1c[nH]cn1)C(=O)N[C@@H](CC(N)=O)C(=O)N[C@H](C(=O)N[C@@H](Cc1ccc(O)cc1)C(N)=O)[C@@H](C)O)C(C)C)[C@@H](C)O, also called 17R, 21P, 27P, 34H) [N^ε1-[2-[2-[2-(19-carboxynonadecanoylamino)ethoxy]ethoxy]acetyl]-[Arg17,Pro21,Pro27,His34]-h-amylin] |
| 0.794 | {C20 diacid-γGlu}-KCNTATCATQRLAEFLRHSSPNFGAIPSSTNVGSETY-NH2 (disulfide 2-7; SMILES CC[C@H](C)[C@H](NC(=O)[C@H](C)NC(=O)CNC(=O)[C@H](Cc1ccccc1)NC(=O)[C@H](CC(N)=O)NC(=O)[C@@H]1CCCN1C(=O)[C@H](CO)NC(=O)[C@H](CO)NC(=O)[C@H](Cc1c[nH]cn1)NC(=O)[C@H](CCCNC(=N)N)NC(=O)[C@H](CC(C)C)NC(=O)[C@H](Cc1ccccc1)NC(=O)[C@H](CCC(=O)O)NC(=O)[C@H](C)NC(=O)[C@H](CC(C)C)NC(=O)[C@H](CCCNC(=N)N)NC(=O)[C@H](CCC(N)=O)NC(=O)[C@@H](NC(=O)[C@H](C)NC(=O)[C@@H]1CSSC[C@H](NC(=O)[C@H](CCCCN)NC(=O)CC[C@H](NC(=O)CCCCCCCCCCCCCCCCCCC(=O)O)C(=O)O)C(=O)N[C@@H](CC(N)=O)C(=O)N[C@@H]([C@@H](C)O)C(=O)N[C@@H](C)C(=O)N[C@@H]([C@@H](C)O)C(=O)N1)[C@@H](C)O)C(=O)N1CCC[C@H]1C(=O)N[C@@H](CO)C(=O)N[C@@H](CO)C(=O)N[C@H](C(=O)N[C@@H](CC(N)=O)C(=O)N[C@H](C(=O)NCC(=O)N[C@@H](CO)C(=O)N[C@@H](CCC(=O)O)C(=O)N[C@H](C(=O)N[C@@H](Cc1ccc(O)cc1)C(N)=O)[C@@H](C)O)C(C)C)[C@@H](C)O, also called 14E, 17R, 21P, 27P, 35E) |
| 0.768 | K([AEEA-AEEA-γGlu-C20 diacid])CNTATCATQRLANFLRHSSPNFGAIPSSTNVGSETY-NH2 (disulfide 2-7; N-terminus assumed; SMILES CC[C@H](C)[C@H](NC(=O)[C@H](C)NC(=O)CNC(=O)[C@H](Cc1ccccc1)NC(=O)[C@H](CC(N)=O)NC(=O)[C@@H]1CCCN1C(=O)[C@H](CO)NC(=O)[C@H](CO)NC(=O)[C@H](Cc1c[nH]cn1)NC(=O)[C@H](CCCNC(=N)N)NC(=O)[C@H](CC(C)C)NC(=O)[C@H](Cc1ccccc1)NC(=O)[C@H](CC(N)=O)NC(=O)[C@H](C)NC(=O)[C@H](CC(C)C)NC(=O)[C@H](CCCNC(=N)N)NC(=O)[C@H](CCC(N)=O)NC(=O)[C@@H](NC(=O)[C@H](C)NC(=O)[C@@H]1CSSC[C@H](NC(=O)[C@@H](N)CCCCNC(=O)COCCOCCNC(=O)COCCOCCNC(=O)CC[C@H](NC(=O)CCCCCCCCCCCCCCCCCCC(=O)O)C(=O)O)C(=O)N[C@@H](CC(N)=O)C(=O)N[C@@H]([C@@H](C)O)C(=O)N[C@@H](C)C(=O)N[C@@H]([C@@H](C)O)C(=O)N1)[C@@H](C)O)C(=O)N1CCC[C@H]1C(=O)N[C@@H](CO)C(=O)N[C@@H](CO)C(=O)N[C@H](C(=O)N[C@@H](CC(N)=O)C(=O)N[C@H](C(=O)NCC(=O)N[C@@H](CO)C(=O)N[C@@H](CCC(=O)O)C(=O)N[C@H](C(=O)N[C@@H](Cc1ccc(O)cc1)C(N)=O)[C@@H](C)O)C(C)C)[C@@H](C)O, also called 17R, 21P, 27P, 35E) |
| 0.061 | K([AEEA-C20 diacid])CNTATCATQRLAHFLRHSSPNFGAIPSSTNVGSNTY-NH2 (disulfide 2-7; N-terminus assumed; SMILES CC[C@H](C)[C@H](NC(=O)[C@H](C)NC(=O)CNC(=O)[C@H](Cc1ccccc1)NC(=O)[C@H](CC(N)=O)NC(=O)[C@@H]1CCCN1C(=O)[C@H](CO)NC(=O)[C@H](CO)NC(=O)[C@H](Cc1c[nH]cn1)NC(=O)[C@H](CCCNC(=N)N)NC(=O)[C@H](CC(C)C)NC(=O)[C@H](Cc1ccccc1)NC(=O)[C@H](Cc1c[nH]cn1)NC(=O)[C@H](C)NC(=O)[C@H](CC(C)C)NC(=O)[C@H](CCCNC(=N)N)NC(=O)[C@H](CCC(N)=O)NC(=O)[C@@H](NC(=O)[C@H](C)NC(=O)[C@@H]1CSSC[C@H](NC(=O)[C@@H](N)CCCCNC(=O)COCCOCCNC(=O)CCCCCCCCCCCCCCCCCCC(=O)O)C(=O)N[C@@H](CC(N)=O)C(=O)N[C@@H]([C@@H](C)O)C(=O)N[C@@H](C)C(=O)N[C@@H]([C@@H](C)O)C(=O)N1)[C@@H](C)O)C(=O)N1CCC[C@H]1C(=O)N[C@@H](CO)C(=O)N[C@@H](CO)C(=O)N[C@H](C(=O)N[C@@H](CC(N)=O)C(=O)N[C@H](C(=O)NCC(=O)N[C@@H](CO)C(=O)N[C@@H](CC(N)=O)C(=O)N[C@H](C(=O)N[C@@H](Cc1ccc(O)cc1)C(N)=O)[C@@H](C)O)C(C)C)[C@@H](C)O, also called 14H, 17R, 21P, 27P) [N^ε1-[2-[2-[2-(19-carboxynonadecanoylamino)ethoxy]ethoxy]acetyl]-[His14,Arg17,Pro21,Pro27]-h-amylin] |
| 0.196 | {C20 diacid-γGlu-γGlu}-KCNTATCATQRLAEFLRHSSPNFGAIPSSTNVGSNTP-NH2 (disulfide 2-7; SMILES CC[C@H](C)[C@H](NC(=O)[C@H](C)NC(=O)CNC(=O)[C@H](Cc1ccccc1)NC(=O)[C@H](CC(N)=O)NC(=O)[C@@H]1CCCN1C(=O)[C@H](CO)NC(=O)[C@H](CO)NC(=O)[C@H](Cc1c[nH]cn1)NC(=O)[C@H](CCCNC(=N)N)NC(=O)[C@H](CC(C)C)NC(=O)[C@H](Cc1ccccc1)NC(=O)[C@H](CCC(=O)O)NC(=O)[C@H](C)NC(=O)[C@H](CC(C)C)NC(=O)[C@H](CCCNC(=N)N)NC(=O)[C@H](CCC(N)=O)NC(=O)[C@@H](NC(=O)[C@H](C)NC(=O)[C@@H]1CSSC[C@H](NC(=O)[C@H](CCCCN)NC(=O)CC[C@H](NC(=O)CC[C@H](NC(=O)CCCCCCCCCCCCCCCCCCC(=O)O)C(=O)O)C(=O)O)C(=O)N[C@@H](CC(N)=O)C(=O)N[C@@H]([C@@H](C)O)C(=O)N[C@@H](C)C(=O)N[C@@H]([C@@H](C)O)C(=O)N1)[C@@H](C)O)C(=O)N1CCC[C@H]1C(=O)N[C@@H](CO)C(=O)N[C@@H](CO)C(=O)N[C@H](C(=O)N[C@@H](CC(N)=O)C(=O)N[C@H](C(=O)NCC(=O)N[C@@H](CO)C(=O)N[C@@H](CC(N)=O)C(=O)N[C@H](C(=O)N1CCC[C@H]1C(N)=O)[C@@H](C)O)C(C)C)[C@@H](C)O, also called 14E, 17R, 21P, 27P, 37P) |
